T1: Siglec-5-Fc (R&D systems) (UniProt O15389 17-434, limits assumed)
T1 construct: Bought reagent; not shown: Fc part of the bought fusion; not described
T1 sequence (looked up): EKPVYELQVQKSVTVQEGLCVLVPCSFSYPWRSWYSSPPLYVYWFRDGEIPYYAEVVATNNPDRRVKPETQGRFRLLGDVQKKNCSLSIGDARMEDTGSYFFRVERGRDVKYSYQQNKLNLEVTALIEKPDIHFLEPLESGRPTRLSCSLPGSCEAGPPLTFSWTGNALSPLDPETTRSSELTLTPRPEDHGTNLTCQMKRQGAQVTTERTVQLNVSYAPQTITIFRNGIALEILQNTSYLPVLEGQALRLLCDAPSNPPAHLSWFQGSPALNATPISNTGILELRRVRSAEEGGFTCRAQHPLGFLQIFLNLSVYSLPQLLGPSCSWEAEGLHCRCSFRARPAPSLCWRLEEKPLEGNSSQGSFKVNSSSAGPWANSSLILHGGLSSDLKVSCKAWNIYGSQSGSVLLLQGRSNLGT

T2: Siglec-15-Fc (R&D systems) (UniProt Q6ZMC9 20-263, limits assumed)
T2 construct: Bought reagent; not shown: Fc part of the bought fusion; not described
T2 sequence (looked up): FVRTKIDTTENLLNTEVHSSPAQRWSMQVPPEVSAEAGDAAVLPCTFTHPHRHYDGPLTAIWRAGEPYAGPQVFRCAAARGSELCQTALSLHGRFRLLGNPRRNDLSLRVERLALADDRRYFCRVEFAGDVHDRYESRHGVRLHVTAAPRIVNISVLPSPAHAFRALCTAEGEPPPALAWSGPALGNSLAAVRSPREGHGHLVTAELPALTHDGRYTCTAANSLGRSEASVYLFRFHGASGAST


Key:
[1] = target: T3, Siglec-8-Fc (R&D systems) (UniProt Q9NYZ4 17-363, limits assumed); experiment: ELISA, coated Siglec-8-Fc 1 µg/ml, single antibody concentration, Abs 450 nm, n=3
T3 construct: Bought reagent; not shown: Fc part of the bought fusion; not described
Protocol: (§1) Specificity towards Siglec-5, Siglec-7, Siglec-8, Siglec-15 and Siglec-9 was assayed in enzyme-linked immunosorbent assay (ELISA) using 96 well half-area ELISA plates (Corning). Siglec-5-Fc (R&D systems), Siglec-7-Fc (in-house production, Siglec-7-Fc protein used had the following amino acid sequence:
(§2) (SEQ ID NO: 59)) […] […] […] […] […] […] […] […] […] […] […] […], Siglec-8-Fc (R&D systems), Siglec-15- Fc (R&D systems) and Siglec-9-Fc (in-house production, SEQ ID NO: 11) were coated at 1 μg/ml in 50 mM carbonate-bicarbonate buffer pH 9.6 for 15-20 hours at 4° C.
(§3) Antigens were washed away (Tecan Hydrospeed) and plates were blocked with 5% skimmed milk in phosphate-buffered saline (PBS). After washing the plates, antibodies were added at 5 μg/ml (33 nM) in 0.5% milk PBS in triplicates. Plates with antibodies were incubated for 1 hour at room temperature. Plates were washed and bound antibodies were detected by horseradish peroxidase (HRP)-labeled polyclonal anti-rabbit IgG antibody (Biolegend) or anti-human Fab fragment for mAbA (Sigma Aldrich). 3,3′,5,5′-Tetramethylbenzidine (TMB; Sigma Aldrich) development was stopped by addition of sulfuric acid and absorbance was detected at 450 nm (Tecan, CM […] MONO 200).

[2] = target: T4, Siglec-9 protein (construct not stated; antigen of Examples 3 and 4) (human, UniProt Q9Y336 18-348, limits assumed); experiment: SPR (Carterra LSA), antibody coupled to HC2000M chip, antigen at 20, 100 and 500 nM
Protocol: (§4) KD determination was performed by SPR by individually coating the antibodies to HC2000M chips via sulpho-NHS/EDC coupling chemistry. Chips were afterwards blocked with ethanolamine. Antigen was applied in one of the three different concentrations (20 nM, 100 nM and 500 nM) with a contact time of 240 s, followed by a dissociation phase of 120 s. After each antigen incubation, the bound antigen was removed from the antibodies with 10 mM glycine at pH 2.0. All kinetic parameters (kₒₙ, koff and KD) were determined using a kinetic fitting program (LSA Kinetics, Carterra).

[3] = target: T5, Siglec-9 expressed on cells (human, UniProt Q9Y336 18-463); experiment: flow cytometry on human CD14+ monocytes in PBMC
T5 construct: also called monocyte-expressed Siglec-9
Protocol: (§5) Human ex vivo PBMC were stained with fluorescence-labeled (allophycocyanin, APC) antibody to the monocyte marker CD14 (Biolegend) in assay buffer (0.5% (v/v) heat-inactivated fetal bovine serum (Gibco), 2 mM EDTA in phosphate-buffered saline). Subsequently, cells were incubated with antibodies under evaluation at various concentrations (67 nM-0.38 pM). After a washing step cells were incubated with fluorescence-labeled (Brilliant Violet 421™) secondary antibody against human IgG (mAbA) or rabbit IgG (all other monoclonal antibodies under evaluation; both secondary antibodies from Biolegend).
(§6) Binding of Siglec-9-specific antibodies to monocytes (CD14-positive life cells) was analysed with a CytoFLEX flow cytometer (Beckham Coulter's). The mean fluorescence intensity of the secondary antibody staining in the CD14-positive population at each dilution was determined using Flow Jo software (BD). Datapoints generated by this analysis were fitted and EC50 values were determined by three-parameter analysis in GraphPad Prism (GraphPad Software)

[4] = target: T5, Siglec-9 expressed on cells; experiment: flow cytometry on human CD14+ monocytes (PBMC), mean RFU of the secondary antibody, three-parameter fit
Protocol: as §5, §6

[5] = target: T4, Siglec-9 protein (construct not stated; …); experiment: ELISA, coated Siglec-9 1 µg/ml, antibody titrated, Abs 450 nm, three-parameter fit, n=3
Protocol: FIG. 2: Binding curves of monoclonal antibodies (68D4 and 224B1; comparative monoclonal antibodies mAbA and 5C6 & negative control 53C3) towards Siglec-9 as analysed by ELISA. Binding of the monoclonal antibody to Siglec-9, as determined by measurement of the accumulated coloured product at 450 nm after stopping the reaction, is plotted against the concentration of the monoclonal antibody under evaluation.
Antibody binding affinity towards Siglec-9 was measured by a dilution series of the analysed antibodies on a fixed concentration of Siglec-9 protein in ELISA. To this end, Siglec-9 was coated at 1 μg/ml in 50 mM carbonate-bicarbonate buffer pH 9.6 for 15-20 hours at 4° C. Antigen solution was washed away (Tecan Hydrospeed) and plates were blocked with 5% skimmed milk in phosphate-buffered saline (PBS) for 1 hour at room temperature. Plates were washed and antibodies were added at concentrations of 0-420 nM. After incubation at room temperature for 1 hour plates were washed once more. Bound antibodies were detected by addition of horseradish peroxidase (HRP)-coupled secondary antibodies. Rabbit antibodies were detected by polyclonal anti-rabbit IgG antibody (Biolegend), mAbA by anti-human Fab fragment (Sigma Aldrich). After a last washing step, plates were developed by the addition of 3,3′,5,5′-Tetramethylbenzidine (TMB; Sigma Aldrich). Reaction was stopped by addition of sulfuric acid. Absorbance was detected at 450 nm (Tecan, CM […] MONO 200). Data were fitted and EC50 values were determined by three-parameter analysis in GraphPad Prism (GraphPad Software)

[6] = target: T1, Siglec-5-Fc (R&D systems); experiment: ELISA, coated Siglec-5-Fc 1 µg/ml, single antibody concentration, Abs 450 nm, n=3
Protocol: as §1, §2, §3

[7] = target: T4, Siglec-9 protein (construct not stated; …); experiment: SPR (Carterra LSA), antibody coupled to HC2000M chip, antigen in solution
Protocol: as §4

[8] = target: T6, Siglec-9-Fc (in-house production); experiment: ELISA, coated Siglec-9-Fc 1 µg/ml, antibody at 5 µg/ml (33 nM), Abs 450 nm, n=3
T6 construct: The entry holds the Siglec-9 part and the Fc together; also called Siglec-9-Fc protein
Protocol: as §1, §2, §3

[9] = target: T2, Siglec-15-Fc (R&D systems); experiment: ELISA, coated Siglec-15-Fc 1 µg/ml, single antibody concentration, Abs 450 nm, n=3
Protocol: as §1, §2, §3

[10] = target: T7, Siglec-7-Fc (in-house production); experiment: ELISA, coated Siglec-7-Fc 1 µg/ml, single antibody concentration, Abs 450 nm, n=3
T7 construct: The entry holds the Siglec-7 part and the Fc together; also called Siglec-7-Fc protein
Protocol: as §1, §2, §3

[11] = target: T6, Siglec-9-Fc (in-house production); experiment: blocking assay: Calcein-AM labelled sialic acid-displaying A549 tumour cells binding to plate-captured Siglec-9-Fc, antibody titrated, n=3
Protocol: FIG. 4: Titration of monoclonal antibodies (68D4 and 224B1; comparative monoclonal antibodies mAbA and 5C6 & negative control 53C3) to determine blocking the binding of sialic acid-displaying A549 tumour cells to Siglec-9. Tumour cells were fluorescently-loaded with Calcein-AM in advance to the binding experiment and binding was determined by the released fluorescence upon cell lysis. Fluorescence released in the absence of antibody was set to 100% binding. Data was fitted by three-parameter analysis in GraphPad Prism (GraphPad Software); n=3.
To analyse if anti-Siglec-9 antibodies recognize the ligand-binding domain and block the binding of Siglec-9 to its ligands, sialic acids, we performed a cell-based assay where the binding of sialic-acid expressing A549 tumour cells to Siglec-9-Fc is evaluated in ELISA. ELISA-plates were coated with 3 μg/ml Protein-A (Thermo Fisher Scientific) overnight at 4° C. Plates were blocked with PBS, 1% BSA for 1 h, and incubated with 5 μg/ml Siglec-9-Fc for 1 h at RT. Anti-Siglec-9 antibodies at different concentrations (starting at 8 μg/ml or 53 nM); were mixed 1:1 with Calcein-AM (Thermo Fisher Scientific) labeled A549 tumour cells. The mixture was added to the ELISA plate and incubated for 1 h at 4° C. After washing of the plate, cells that were bound to the plate were lysed with PBS, 1% Triton-X 100 and released fluorescence was measured at an excitation of 485 nm and emission of 535 nm with a Synergy H1 (BioTek). Data were fitted by three-parameter analysis in GraphPad Prism (GraphPad Software).

[12] = target: extra-cellular domain of Siglec-9 fused to a C-terminal his-tag (Homo sapiens (Human), UniProt Q9Y336 18-348); experiment: ELISA, coated his-tagged Siglec-9 extracellular domain, anti-human Fc gamma detection, Abs 450 nm
From the text: (SEQ ID NO: 44) […] […] […] […] […] […] […]. For detection of bound IgG either polyclonal anti- rabbit IgG antibody (68D4; Biolegend, #406401), or anti-human Fey fragment (humanized 68D4 and mAbA; Jackson Immuno Research laboratories, #109-035-098) were used.

T4 sequence (Q9Y336 18-348 limits assumed): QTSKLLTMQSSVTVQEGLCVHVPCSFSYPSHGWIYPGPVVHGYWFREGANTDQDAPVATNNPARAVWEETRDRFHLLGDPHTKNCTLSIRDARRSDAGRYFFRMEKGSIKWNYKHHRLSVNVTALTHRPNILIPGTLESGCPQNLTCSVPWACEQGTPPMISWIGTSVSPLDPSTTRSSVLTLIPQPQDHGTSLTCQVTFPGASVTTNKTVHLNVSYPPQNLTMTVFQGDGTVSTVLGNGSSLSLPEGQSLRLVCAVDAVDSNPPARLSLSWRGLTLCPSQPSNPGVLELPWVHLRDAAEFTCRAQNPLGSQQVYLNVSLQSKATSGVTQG
T5 sequence (Q9Y336 18-463 limits assumed): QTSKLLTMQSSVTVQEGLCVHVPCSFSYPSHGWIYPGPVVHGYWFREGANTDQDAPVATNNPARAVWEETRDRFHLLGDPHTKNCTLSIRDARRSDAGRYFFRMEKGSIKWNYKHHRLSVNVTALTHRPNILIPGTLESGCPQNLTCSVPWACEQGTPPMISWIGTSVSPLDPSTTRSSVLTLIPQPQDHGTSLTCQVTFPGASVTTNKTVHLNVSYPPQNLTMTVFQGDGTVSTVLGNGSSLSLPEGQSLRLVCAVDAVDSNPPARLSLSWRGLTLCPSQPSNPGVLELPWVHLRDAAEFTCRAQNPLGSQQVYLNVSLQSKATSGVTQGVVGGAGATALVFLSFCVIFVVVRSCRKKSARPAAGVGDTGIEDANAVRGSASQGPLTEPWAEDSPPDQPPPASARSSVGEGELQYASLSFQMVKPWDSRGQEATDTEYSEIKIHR
T7 sequence (chain, as listed by the source limits assumed): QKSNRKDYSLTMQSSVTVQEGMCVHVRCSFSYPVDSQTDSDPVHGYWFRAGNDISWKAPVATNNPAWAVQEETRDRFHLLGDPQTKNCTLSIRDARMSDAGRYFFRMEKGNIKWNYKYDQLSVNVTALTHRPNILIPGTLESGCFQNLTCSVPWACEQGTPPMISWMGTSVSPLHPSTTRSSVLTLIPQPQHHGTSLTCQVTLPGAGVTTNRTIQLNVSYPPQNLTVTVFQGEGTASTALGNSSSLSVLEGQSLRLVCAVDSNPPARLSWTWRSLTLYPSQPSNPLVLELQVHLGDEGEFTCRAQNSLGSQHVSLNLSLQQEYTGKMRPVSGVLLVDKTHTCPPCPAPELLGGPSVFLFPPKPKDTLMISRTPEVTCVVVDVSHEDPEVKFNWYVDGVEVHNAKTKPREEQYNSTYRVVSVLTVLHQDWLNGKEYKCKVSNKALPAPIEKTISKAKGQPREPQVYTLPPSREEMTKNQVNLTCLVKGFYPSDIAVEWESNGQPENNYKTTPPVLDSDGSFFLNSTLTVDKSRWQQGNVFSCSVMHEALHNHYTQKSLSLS
T3 sequence (Q9NYZ4 17-363 limits assumed): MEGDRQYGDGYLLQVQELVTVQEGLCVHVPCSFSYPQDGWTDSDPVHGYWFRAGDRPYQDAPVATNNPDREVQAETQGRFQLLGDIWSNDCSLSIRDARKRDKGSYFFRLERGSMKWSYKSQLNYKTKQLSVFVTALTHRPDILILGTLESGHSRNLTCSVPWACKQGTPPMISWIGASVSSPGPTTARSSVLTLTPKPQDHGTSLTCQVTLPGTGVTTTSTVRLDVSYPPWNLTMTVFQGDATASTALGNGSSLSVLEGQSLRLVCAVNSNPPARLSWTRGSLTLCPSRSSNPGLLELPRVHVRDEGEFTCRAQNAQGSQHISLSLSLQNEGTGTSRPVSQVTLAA
T6 sequence (chain, as listed by the source limits assumed): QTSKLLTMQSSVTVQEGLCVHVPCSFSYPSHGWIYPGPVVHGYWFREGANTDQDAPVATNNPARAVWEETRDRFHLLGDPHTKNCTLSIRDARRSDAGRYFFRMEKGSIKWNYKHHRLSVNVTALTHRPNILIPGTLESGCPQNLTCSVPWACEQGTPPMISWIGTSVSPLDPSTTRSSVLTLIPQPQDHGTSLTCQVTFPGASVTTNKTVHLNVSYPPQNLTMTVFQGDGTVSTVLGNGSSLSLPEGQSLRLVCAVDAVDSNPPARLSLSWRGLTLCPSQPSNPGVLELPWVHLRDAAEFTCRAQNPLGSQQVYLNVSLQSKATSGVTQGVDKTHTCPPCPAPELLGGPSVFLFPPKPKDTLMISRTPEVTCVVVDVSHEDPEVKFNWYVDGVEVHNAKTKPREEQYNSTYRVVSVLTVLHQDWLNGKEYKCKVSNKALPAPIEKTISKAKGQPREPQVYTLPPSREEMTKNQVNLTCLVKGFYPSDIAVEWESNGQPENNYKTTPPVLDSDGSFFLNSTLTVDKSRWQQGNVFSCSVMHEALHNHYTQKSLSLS
extra-cellular domain of Siglec-9 fused to a C-terminal his-tag, sequence (Q9Y336 18-348 limits assumed): as the sequence (Q9Y336 18-348 limits assumed) above

binding result [1]	Kd [2] [nM]	koff [2] [s⁻¹]	kon [2] [M⁻¹ s⁻¹]	fold stronger avidity than mAbA [3] [fold]	fold stronger binding than 5C6 [3] [fold]	EC50 [4] [nM]	EC50 [5] [nM]	binding result [6]	fold better dissociation constant than mAbA [7] [fold]	binding result [8]	binding result [9]	binding result [10]	binding result [11]	EC50 (read off the curve) [12] [nM]	Binder
no binding (tested: 5 µg/ml)	0.15	9.6e-05	640000	~3	~22	0.19	0.05	no binding (tested: 5 µg/ml)	~16.7	binds	no binding (tested: 5 µg/ml)	no binding (tested: 5 µg/ml)			monoclonal antibody 68D4 (rabbit) (antibody, V domains shown, also called rb 68D4; rabbit 68D4) VH: QSLEESGGRLVKPDETLTITCTVSGIDLSSYDMTWVRQAPGKGLEWIGIIYTGGLTYYASWAKGRFTISKTSTTVDLKITSPTTEDTATYFCAREVGDNNNFWGPGTLVTVSS VL: DVVMTQTPASVSEPVGGTVTIKCQASESVDSGLAWYHQKPGQPPKLLIYDDTDLASGVPSRFKGSRSGTAHTLTISDLECADAATYYCQYTDYGRTYVGTFGGGTEVVIKG
no binding (tested: 5 µg/ml)						4.18	0.34	no binding (tested: 5 µg/ml)			no binding (tested: 5 µg/ml)	no binding (tested: 5 µg/ml)	binds		comparative monoclonal antibody 5C6 (WO 2017/075432), mouse-rabbit chimera (antibody, V domains shown) VH: EVQLQQSGPELVKPGASVRISCKASGYTFTDYNIHWVKQSQGKSLEWIGYIYPYNGDTGYNQKFQNKATLTVDNSSSTAYMELRSLTSEDSAVYYCANGNYLYYYAMDYWGQGTSVTVSS VL: DVVMTQTPLSLPVSLGDQVSISCSSSQSLVHSNGNTYLHWYLQKSGQSPKLLIYKVSNRFSGVPDRFRGSGSGTDFTLKISRVEAEDLGVYFCSQNTHVPLTFGAGTKLELKG
														~0.06	humanized anti-Siglec-9 antibody 68D4 (68D4-hum) (antibody, human IgG1, kappa, V domains shown, Human IgG1/kappa, expressed in HEK293F cells; also called humanized 68D4) VH: EVQLVESGGGLVQPGGSLRISCAASGIDLSSYDMTWVRQAPGKGLEWVSIIYTGGLTYYADSVKGRFTISRDNSKNTVYLQMNSLRAEDTAVYYCAREVGDNNNFWGQGTLVTVSS VL: DIVMTQSPSSVSASVGDRVTITCRASESVSSGLAWYQQKPGKAPKLLVYDDTDLASGVPSRFSGSGSGTEFTLTISSLQPDDFATFYCQYTDYGRTYVGTFGGGTKVEIKR
